In general, stoichiometry N refers to a count of units in the complex or per binding partner.

These results are taken from paper PMC8423358.

The assay concerns the target DPP9, short isoform (DPP9S), co-expressed with CARD8 for cryo-EM, Q86TI2. The experiment in a line: cryo-EM structure. The settings on record: remark: other sources report otherwise.

B1: DPP9, short isoform (DPP9S), co-expressed with CARD8 for cryo-EM, Q86TI2-1 1-863 (enzyme)
chain: MATTGTPTADRGDAAATDDPAARFQVQKHSWDGLRSIIHGSRKYSGLIVNKAPHDFQFVQKTDESGPHSHRLYYLGMPYGSRENSLLYSEIPKKVRKEALLLLSWKQMLDHFQATPHHGVYSREEELLRERKRLGVFGITSYDFHSESGLFLFQASNSLFHCRDGGKNGFMVSPMKPLEIKTQCSGPRMDPKICPADPAFFSFINNSDLWVANIETGEERRLTFCHQGLSNVLDDPKSAGVATFVIQEEFDRFTGYWWCPTASWEGSEGLKTLRILYEEVDESEVEVIHVPSPALEERKTDSYRYPRTGSKNPKIALKLAEFQTDSQGKIVSTQEKELVQPFSSLFPKVEYIARAGWTRDGKYAWAMFLDRPQQWLQLVLLPPALFIPSTENEEQRLASARAVPRNVQPYVVYEEVTNVWINVHDIFYPFPQSEGEDELCFLRANECKTGFCHLYKVTAVLKSQGYDWSEPFSPGEDEFKCPIKEEIALTSGEWEVLARHGSKIWVNEETKLVYFQGTKDTPLEHHLYVVSYEAAGEIVRLTTPGFSHSCSMSQNFDMFVSHYSSVSTPPCVHVYKLSGPDDDPLHKQPRFWASMMEAASCPPDYVPPEIFHFHTRSDVRLYGMIYKPHALQPGKKHPTVLFVYGGPQVQLVNNSFKGIKYLRLNTLASLGYAVVVIDGRGSCQRGLRFEGALKNQMGQVEIEDQVEGLQFVAEKYGFIDLSRVAIHGWSYGGFLSLMGLIHKPQVFKVAIAGAPVTVWMAYDTGYTERYMDVPENNQHGYEAGSVALHVEKLPNEPNRLLILHGFLDENVHFFHTNFLVSQLIRAGKPYQLQIYPNERHSIRCPESGEHYEVTLLHFLQEYL
Take B1: the stoichiometry N amounted to 2.
